Results as given in article doi:10.1101/800508 (bioRxiv, 2019).

B1: Sfh1, subunit of RSC (natural protein)
chain: MSHQNQLIPQAYISNFHNRLTNEDDGIPIFTMAQQTRQHKRAKVVNYAEYDNDLFDEFNMNGSNFNNADTHYKDNAVSHENTPALTNGVTMDGSEYNVLENMNGADSIISNNKYDAGSNMVVESLSGLNSNNNASNGPSNKAQAQDIGNAVLPDLQDQHHNPFNILRYPKIRDTFINGKVVSPYRLNTDQETKANANSGEAIMIPITLDIEHMGHTIKDQFLWNYNDDSISPEEFASIYCKDLDMTSATLQTQIANIIKEQLKDLENIAATEIMSDLHVIINLTCNLQDRFFEDNFQWNLNDKSLTPERFATSIVQDLGLTREFIPLISQSLHETILKIKKDWVDGHLIQDHVPNDAAFGYLSGIRLDIDELGSNWCPRVEILTKEEIQKREIEKERNLRRLKRETDRLSRRGRRRLDDLETTMRM
B2: Rsc8, subunit of RSC (natural protein)
chain: MSDTEKDKDVPMVDSHEATEEPPTTSTNTPSFPHLAQEQAKEESATLGAEVAHKKINYEQEAQKLEEKALRFLAKQTHPVIIPSFASWFDISKIHEIEKRSNPDFFNDSSRFKTPKAYKDTRNFIINTYRLSPYEYLTITAVRRNVAMDVASIVKIHAFLEKWGLINYQIDPRTKPSLIGPSFTGHFQVVLDTPQGLKPFLPENVIKQEVEGGDGAEPQVKKEFPVNLTIKKNVYDSAQDFNALQDESRNSRQIHKVYICHTCGNESINVRYHNLRARDTNLCSRCFQEGHFGANFQSSDFIRLENNGNSVKKNWSDQEMLLLLEGIEMYEDQWEKIADHVGGHKRVEDCIEKFLSLPIEDNYIREVVGSTLNGKGGDSRDGSVSGSKLMECVNDAVQTLLQGDDKLGKVSDKSREISEKYIEESQAIIQELVKLTMEKLESKFTKLCDLETQLEMEKLKYVKESEKMLNDRLSLSKQILDLNKSLEELNVSKKLVLISEQVDSGIQLVEKDQEGDDEDGNTATGHGVKRVGKEGEEVGEGDSIAKLQPQVYKPWSL
B3: Sth1, ATPase subunit of RSC (enzyme)
chain: MLQEQSELMSTVMNNTPTTVAALAAVAAASETNGKLGSEEQPEITIPKPRSSAQLEQLLYRYRAIQNHPKENKLEIKAIEDTFRNISRDQDIYETKLDTLRKSIDKGFQYDEDLLNKHLVALQLLEKDTDVPDYFLDLPDTKNDNTTAIEVDYSEKKPIKISADFNAKAKSLGLESKFSNATKTALGDPDTEIRISARISNRINELERLPANLGTYSLDDCLEFITKDDLSSRMDTFKIKALVELKSLKLLTKQKSIRQKLINNVASQAHHNIPYLRDSPFTAAAQRSVQIRSKVIVPQTVRLAEELERQQLLEKRKKERNLHLQKINSIIDFIKERQSEQWSRQERCFQFGRLGASLHNQMEKDEQKRIERTAKQRLAALKSNDEEAYLKLLDQTKDTRITQLLRQTNSFLDSLSEAVRAQQNEAKILHGEEVQPITDEEREKTDYYEVAHRIKEKIDKQPSILVGGTLKEYQLRGLEWMVSLYNNHLNGILADEMGLGKTIQSISLITYLYEVKKDIGPFLVIVPLSTITNWTLEFEKWAPSLNTIIYKGTPNQRHSLQHQIRVGNFDVLLTTYEYIIKDKSLLSKHDWAHMIIDEGHRMKNAQSKLSFTISHYYRTRNRLILTGTPLQNNLPELWALLNFVLPKIFNSAKTFEDWFNTPFANTGTQEKLELTEEETLLIIRRLHKVLRPFLLRRLKKEVEKDLPDKVEKVIKCKLSGLQQQLYQQMLKHNALFVGAGTEGATKGGIKGLNNKIMQLRKICNHPFVFDEVEGVVNPSRGNSDLLFRVAGKFELLDRVLPKFKASGHRVLMFFQMTQVMDIMEDFLRMKDLKYMRLDGSTKTEERTEMLNAFNAPDSDYFCFLLSTRAGGLGLNLQTADTVIIFDTDWNPHQDLQAQDRAHRIGQKNEVRILRLITTDSVEEVILERAMQKLDIDGKVIQAGKFDNKSTAEEQEAFLRRLIESETNRDDDDKAELDDDELNDTLARSADEKILFDKIDKERMNQERADAKAQGLRVPPPRLIQLDELPKVFREDIEEHFKKEDSEPLGRIRQKKRVYYDDGLTEEQFLEAVEDDNMSLEDAIKKRREARERRRLRQNGTKENEIETLENTPEASETSLIENNSFTAAVDEETNADKETTASRSKRRSSRKKRTISIVTAEDKENTQEESTSQENGGAKVEEEVKSSSVEIINGSESKKKKPKLTVKIKLNKTTVLENNDGKRAEEKPESKSPAKKTAAKKTKTKSKSLGIFPTVEKLVEEMREQLDEVDSHPRTSIFEKLPSKRDYPDYFKVIEKPMAIDIILKNCKNGTYKTLEEVRQALQTMFENARFYNEEGSWVYVDADKLNEFTDEWFKEHSS
B4: Rsc6, subunit of RSC (natural protein)
chain: MVTQTNPVPVTYPTDAYIPTYLPDDKVSNLADLKKLIEMDSRLDLYLTRRRLDTSINLPTNTKTKDHPPNKEMLRIYVYNTTESSPRSDSGTPADSGKTTWTLRIEGKLLHESANGKHPFSEFLEGVAVDFKRLKPLGMGKKRKRDSSLSLPLNLQQPEYNDQDSTMGDNDNGEDEDSAEAESREEIVDALEWNYDENNVVEFDGIDIKRQGKDNLRCSITIQLRGVDGGKVQYSPNLATLIGMQTGSVNDAVYSIYKYILINNLFVTEQTEAQDGSNDAEDSSNENNNKNGAGDDDGVEGSTPKDKPELGEVKLDSLLQKVLDTNAAHLPLMNVVQTVNKLVSPLPPIILDYTIDLSKDTTYGATTLDVDVSHILHQPQPQPNLQKEEETDAEDTAKLREITKLALQLNSSAQKYQFFHELSLHPRETLTHYLWSSKQNELVLQGDQYFNEDAARTSDIYSNNNNDRSLMGNISLLYSQGRL
B5: Arp7, actin-related protein, subunit of RSC (natural protein)
chain: MTLNRKCVVIHNGSHRTVAGFSNVELPQCIIPSSYIKRTDEGGEAEFIFGTYNMIDAAAEKRNGDEVYTLVDSQGLPYNWDALEMQWRYLYDTQLKVSPEELPLVITMPATNGKPDMAILERYYELAFDKLNVPVFQIVIEPLAIALSMGKSSAFVIDIGASGCNVTPIIDGIVVKNAVVRSKFGGDFLDFQVHERLAPLIKEENDMENMADEQKRSTDVWYEASTWIQQFKSTMLQVSEKDLFELERYYKEQADIYAKQQEQLKQMDQQLQYTALTGSPNNPLVQKKNFLFKPLNKTLTLDLKECYQFAEYLFKPQLISDKFSPEDGLGPLMAKSVKKAGASINSMKANTSTNPNGLGTSHINTNVGDNNSTASSSNISPEQVYSLLLTNVIITGSTSLIEGMEQRIIKELSIRFPQYKLTTFANQVMMDRKIQGWLGALTMANLPSWSLGKWYSKEDYETLKRDRKQSQATNATN
B6: Arp9, actin-related protein, subunit of RSC (natural protein)
chain: MAPFRQDSILIIYPRSQTTLVQFGLNEETFTVPELEIPTQIYRTTRQDGSYTYHSTNKDNKAELIKPIQNGEIIDISAFTQFLRLIFVSILSDRANKNQDAFEAELSNIPLLLITHHSWSQSDLEIITQYVFESLEINNLIQLPASLAATYSMISLQNCCIIDVGTHHTDIIPIVDYAQLDHLVSSIPMGGQSINDSLKKLLPQWDDDQIESLKKSPIFEVLSDDAKKLSSFDFGNENEDEDEGTLNVAEIITSGRDTREVLEERERGQKVKNVKNSDLEFNTFWDEKGNEIKVGKQRFQGCNNLIKNISNRVGLTLDNIDDINKAKAVWENIIIVGGTTSISGFKEALLGQLLKDHLIIEPEEEKSKREEEAKSVLPAATKKKSKFMTNSTAFVPTIEYVQCPTVIKLAKYPDYFPEWKKSGYSEIIFLGAQIVSKQIFTHPKDTFYITREKYNMKGPAALWDVQF
B7: Rtt102, subunit of RSC (natural protein)
chain: MDPQTLITKANKVSYYGNPTSKESWRYDWYQPSKVSSNVQQPQQQLGDMENNLEKYPFRYKTWLRNQEDEKNLQRESCEDILDLKEFDRRILKKSLMTSHTKGDTSKATGAPSANQGDEALSVDDIRGAVGNSEAIPGLSAGVNNDNTKESKDVKMN

Tests used:
Assay in all cases: cryo-EM structure
Rsc8, subunit of RSC = target: B2
cryo-EM structure = target: the molecule itself
[1] = target: histone H4 (Xenopus laevis) (Xenopus laevis, UniProt P62799 2-103)
[2] = target: B3

Binder: B1
binding result (Rsc8, subunit of RSC): binds

Binder: B2
stoichiometry N (cryo-EM structure): 2

Binder: B3
binding result [1]: binds

Binder: B4
binding result (Rsc8, subunit of RSC): binds

Binder: B5
binding result [2]: binds

Binder: B6
binding result [2]: binds

Binder: B7
binding result [2]: binds
